Numbering of substitutions follows the chain as printed. Names may count otherwise.
B1: FIXa-A103N/N105S/K247N/N249S/R318Y/R338E/R403E/E410N (enzyme)
chain 1: YNSGKLEEFVQGNLERECMEEKCSFEEAREVFENTERTTEFWKQYVDGDQCESNPCLNGGSCKDDINSYECWCPFGFEGKNCELDVTCNIKNGRCEQFCKNSNDSKVVCSCTEGYRLAENQKSCEPAVPFPCGRVSVSQTSKLTR
chain 2: VVGGEDAKPGQFPWQVVLNGKVDAFCGGSIVNEKWIVTAAHCVETGVKITVVAGEHNIEETEHTEQNRSVIRIIPHHNYNAAINKYNHDIALLELDEPLVLNSYVTPICIADKEYTNIFLKFGSGYVSGWGRVFHKGYSALVLQYLRVPLVDRATCLESTKFTIYNNMFCAGFHEGGRDSCQGDSGGPHVTEVEGTSFLTGIISWGEECAMKGKYGIYTKVSEYVNWIKNKTKLT
B2: FIXa-D104N/K106S/K247N/N249S/R318Y/R338E/R403E/E410N (enzyme)
chain 1: B1 chain 1 with N103A, D104N, S105N, K106S
chain 2: B1 chain 2
B3: FIXa-I251S/R318Y/R338E/R403E/E410N (enzyme)
chain 1: B1 chain 1 with N103A, S105N
chain 2: B1 chain 2 with N67K, S69N, I71S
notes: also called I86S/R150Y/R170E/R233E/E240N (chymotrypsin numbering)
B4: FIXa-Y155F/K247N/N249S/R318Y/R338E/E410N (enzyme)
chain 1: B1 chain 1 with N103A, S105N
chain 2: B1 chain 2 with E223R
B5: FIXa-R318Y/R338E/R403E/E410S (enzyme)
chain 1: B1 chain 1 with N103A, S105N
chain 2: B1 chain 2 with N67K, S69N, N230S
notes: also called R150Y/R170E/R233E/E240S (chymotrypsin numbering)
B6: FIXa-R318Y/R338E/N346D/R403E/E410N (enzyme)
chain 1: B1 chain 1 with N103A, S105N
chain 2: B1 chain 2 with N67K, S69N, N166D
notes: also called R150Y/R170E/N178D/R233E/E240N (chymotrypsin numbering)
B7: FIXa-Y155F/K247N/N249S/N260S (enzyme)
chain 1: B1 chain 1 with N103A, S105N
chain 2: B1 chain 2 with N80S, Y138R, E158R, E223R, N230E
B8: FIXa-R318Y/R338E/N346Y/R403E/E410N (enzyme)
chain 1: B1 chain 1 with N103A, S105N
chain 2: B1 chain 2 with N67K, S69N, N166Y
notes: also called R150Y/R170E/N178Y/R233E/E240N (chymotrypsin numbering)
B9: FIXa-K228N/K247N/N249S (enzyme)
chain 1: B1 chain 1 with N103A, S105N
chain 2: B1 chain 2 with K48N, Y138R, E158R, E223R, N230E
notes: also called K63N/K82N/N84S (chymotrypsin numbering)
B10: FIXa-R318Y/R338E/T343R/N346D/R403E/E410N (enzyme)
chain 1: B1 chain 1 with N103A, S105N
chain 2: B1 chain 2 with N67K, S69N, T163R, N166D
notes: also called R150Y/R170E/T175R/N178D/R233E/E240N (chymotrypsin numbering)
B11: FIXa-K247N/N249S/N260S/R318Y/R338E/R403E/E410N (enzyme)
chain 1: B1 chain 1 with N103A, S105N
chain 2: B1 chain 2 with N80S
notes: also called K82N/N84S/N95S/R150Y/R170E/R233E/E240N (chymotrypsin numbering)
B12: FIXa-R318Y/R338E/E410N/T412V (enzyme)
chain 1: B1 chain 1 with N103A, S105N
chain 2: B1 chain 2 with N67K, S69N, E223R, T232V
notes: also called R150Y/R170E/E240N/T242V (chymotrypsin numbering)
B13: FIXa-D104N/K106S/I251S/R318Y/R338E/R403E/E410N (enzyme)
chain 1: B1 chain 1 with N103A, D104N, S105N, K106S
chain 2: B1 chain 2 with N67K, S69N, I71S
B14: FIXa-K228N/K247N/N249S/R318Y/R338E/R403E/E410N (enzyme)
chain 1: B1 chain 1 with N103A, S105N
chain 2: B1 chain 2 with K48N
notes: also called K63N/K82N/N84S/R150Y/R170E/R233E/E240N (chymotrypsin numbering)
B15: FIXa-I251S/R318Y/R338E/E410N (enzyme)
chain 1: B1 chain 1 with N103A, S105N
chain 2: B1 chain 2 with N67K, S69N, I71S, E223R
notes: also called I251S/R318Y/E410N/R338E; I86S/R150Y/R170E/E240N (chymotrypsin numbering)
B16: FIXa-Y155F/K228N/R318Y/R338E/R403E/E410N (enzyme)
chain 1: B1 chain 1 with N103A, S105N
chain 2: B1 chain 2 with K48N, N67K, S69N
B17: FIXa-R318Y/R338E/T343R/R403E/E410N (enzyme)
chain 1: B1 chain 1 with N103A, S105N
chain 2: B1 chain 2 with N67K, S69N, T163R
notes: also called R150Y/R170E/T175R/R233E/E240N (chymotrypsin numbering)
B18: FIXa-D104N/K106S/I251S/R318Y/R338E/E410N (enzyme)
chain 1: B1 chain 1 with N103A, D104N, S105N, K106S
chain 2: B1 chain 2 with N67K, S69N, I71S, E223R
B19: FIXa-R318Y/R338E/E410S (enzyme)
chain 1: B1 chain 1 with N103A, S105N
chain 2: B1 chain 2 with N67K, S69N, E223R, N230S
notes: also called R150Y/R170E/E240S (chymotrypsin numbering)
B20: FIXa-Y259F/K265T/Y345T (enzyme)
chain 1: B1 chain 1 with N103A, S105N
chain 2: B1 chain 2 with N67K, S69N, Y79F, K85T, Y138R, E158R, Y165T, E223R, N230E
notes: also called Y94F/K98T/Y177T (chymotrypsin numbering)
B21: FIXa-R318Y/R338E/R403E/E410N/T412V (enzyme)
chain 1: B1 chain 1 with N103A, S105N
chain 2: B1 chain 2 with N67K, S69N, T232V
notes: also called R150Y/R170E/R233E/E240N/T242V (chymotrypsin numbering)
B22: FIXa-K247N/N249S/N260S (enzyme)
chain 1: B1 chain 1 with N103A, S105N
chain 2: B1 chain 2 with N80S, Y138R, E158R, E223R, N230E
notes: also called K82N/N84S/N95S (chymotrypsin numbering)
B23: FIXa-R318Y/R338E/T343R/N346Y/R403E/E410N (enzyme)
chain 1: B1 chain 1 with N103A, S105N
chain 2: B1 chain 2 with N67K, S69N, T163R, N166Y
notes: also called R150Y/R170E/T175R/N178Y/R233E/E240N (chymotrypsin numbering)

The binders below were run against T1, Factor VIIIa (recombinant FVIII, Kogenate FS, Bayer healthcare, activated with alpha-thrombin) (UniProt P00451 20-2351, limits assumed) (assay: same assay; KD-app of Catalyst Biosciences WT FIXa divided by KD-app of the variant).
T1 construct: also called FVIIIa; cofactor
T1 sequence (looked up): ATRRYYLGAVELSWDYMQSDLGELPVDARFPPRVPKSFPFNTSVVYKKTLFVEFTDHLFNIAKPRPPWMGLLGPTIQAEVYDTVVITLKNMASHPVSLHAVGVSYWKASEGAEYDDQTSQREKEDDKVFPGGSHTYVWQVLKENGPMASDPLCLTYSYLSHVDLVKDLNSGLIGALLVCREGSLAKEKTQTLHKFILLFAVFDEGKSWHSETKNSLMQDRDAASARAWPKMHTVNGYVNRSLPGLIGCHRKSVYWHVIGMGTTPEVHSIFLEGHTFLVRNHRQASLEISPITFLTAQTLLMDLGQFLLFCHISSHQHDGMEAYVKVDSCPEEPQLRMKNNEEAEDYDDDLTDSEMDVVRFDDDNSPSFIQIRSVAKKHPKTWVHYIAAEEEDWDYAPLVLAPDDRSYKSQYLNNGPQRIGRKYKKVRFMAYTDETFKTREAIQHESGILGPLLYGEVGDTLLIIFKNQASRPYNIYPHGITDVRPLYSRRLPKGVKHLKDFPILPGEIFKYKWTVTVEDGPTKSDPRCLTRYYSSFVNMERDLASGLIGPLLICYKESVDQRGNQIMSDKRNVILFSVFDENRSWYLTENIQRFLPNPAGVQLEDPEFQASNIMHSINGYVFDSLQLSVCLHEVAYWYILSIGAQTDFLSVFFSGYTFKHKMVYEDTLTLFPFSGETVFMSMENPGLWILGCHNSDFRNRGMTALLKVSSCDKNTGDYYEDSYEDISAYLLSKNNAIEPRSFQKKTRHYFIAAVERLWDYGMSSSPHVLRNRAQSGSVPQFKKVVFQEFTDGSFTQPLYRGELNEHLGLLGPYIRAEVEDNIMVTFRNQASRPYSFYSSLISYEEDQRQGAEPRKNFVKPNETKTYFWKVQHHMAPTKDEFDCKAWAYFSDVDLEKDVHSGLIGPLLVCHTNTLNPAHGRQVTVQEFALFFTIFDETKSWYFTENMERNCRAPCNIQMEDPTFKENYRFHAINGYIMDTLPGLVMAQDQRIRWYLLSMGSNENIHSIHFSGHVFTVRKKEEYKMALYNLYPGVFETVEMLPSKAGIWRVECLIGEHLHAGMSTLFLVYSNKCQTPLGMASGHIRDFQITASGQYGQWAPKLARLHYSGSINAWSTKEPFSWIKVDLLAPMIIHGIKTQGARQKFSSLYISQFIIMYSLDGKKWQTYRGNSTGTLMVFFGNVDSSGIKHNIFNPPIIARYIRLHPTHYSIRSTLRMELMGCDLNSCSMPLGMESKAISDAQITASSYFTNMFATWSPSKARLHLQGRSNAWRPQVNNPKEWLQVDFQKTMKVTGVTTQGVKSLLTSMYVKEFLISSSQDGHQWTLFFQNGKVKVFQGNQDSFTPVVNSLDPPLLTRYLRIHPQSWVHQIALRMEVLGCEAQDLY
Experimental: The molar concentration of FVIII was then determined by absorbance at 280 nm using an extinction coefficient of 1.567 mg⁻¹ mL cm⁻¹ and a molecular weight of 163.6 kDa.

Binder	KD-WT/KD-mut
B1	1 ratio
B2	1.1 ratio
B3	1.5 ratio
B4	12.8 ratio
B5	1.8 ratio
B6	0.9 ratio
B7	0.6 ratio
B8	2.4 ratio
B9	0.8 ratio
B10	1.3 ratio
B11	1.5 ratio
B12	10.7 ratio
B13	1.7 ratio
B14	0.9 ratio
B15	16.7 ratio
B16	3.1 ratio
B17	6.6 ratio
B18	7.7 ratio
B19	14.1 ratio
B20	0.8 ratio
B21	1.7 ratio
B22	0.6 ratio
B23	6.1 ratio

Reference: patent publication US20210230570A1 (published 2021)
